Test results as given in patent US20100041596A1.

Columns and labels:
Conditions in all cases: remark: other sources report otherwise
[1] = target: T1, p60 TNFR, full-length (Homo sapiens (Human)), P19438; test: DTSSP crosslinking of H9 cells with or without TNFα, non-reducing gel, anti-p60 blot
T1 chain: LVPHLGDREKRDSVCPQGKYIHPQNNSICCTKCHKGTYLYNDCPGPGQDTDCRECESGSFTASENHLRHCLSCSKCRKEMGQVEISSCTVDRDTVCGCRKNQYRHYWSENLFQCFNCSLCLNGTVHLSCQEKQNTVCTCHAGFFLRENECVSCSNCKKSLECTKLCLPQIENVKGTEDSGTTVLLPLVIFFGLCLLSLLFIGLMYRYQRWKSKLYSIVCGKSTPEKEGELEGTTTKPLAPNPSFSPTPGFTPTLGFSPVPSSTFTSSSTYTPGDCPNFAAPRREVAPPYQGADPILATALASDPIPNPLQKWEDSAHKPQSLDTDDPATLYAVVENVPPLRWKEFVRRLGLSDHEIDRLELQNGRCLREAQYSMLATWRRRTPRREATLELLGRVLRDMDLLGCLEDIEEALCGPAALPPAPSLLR

[2] = target: T2, Fas fusion proteins with the death domain (CFP and YFP) (Homo sapiens (Human)), P25445; test: CFP dequenching after YFP photobleaching, microscope
T2 chain: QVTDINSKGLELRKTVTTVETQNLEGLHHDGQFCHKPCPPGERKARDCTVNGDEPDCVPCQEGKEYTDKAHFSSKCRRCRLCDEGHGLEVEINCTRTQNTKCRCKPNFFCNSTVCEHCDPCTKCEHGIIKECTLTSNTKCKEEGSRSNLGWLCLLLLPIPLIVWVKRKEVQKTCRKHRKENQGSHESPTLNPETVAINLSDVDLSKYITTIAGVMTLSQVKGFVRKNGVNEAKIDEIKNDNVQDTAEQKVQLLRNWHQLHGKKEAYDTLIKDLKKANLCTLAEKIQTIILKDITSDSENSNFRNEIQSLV

[3] = target: T3, native Fas receptor of H9 lymphoma cells (Homo sapiens (Human)), P25445; test: DTSSP crosslinking of H9 cells, deglycosylated lysates, anti-Fas blot
T3 chain: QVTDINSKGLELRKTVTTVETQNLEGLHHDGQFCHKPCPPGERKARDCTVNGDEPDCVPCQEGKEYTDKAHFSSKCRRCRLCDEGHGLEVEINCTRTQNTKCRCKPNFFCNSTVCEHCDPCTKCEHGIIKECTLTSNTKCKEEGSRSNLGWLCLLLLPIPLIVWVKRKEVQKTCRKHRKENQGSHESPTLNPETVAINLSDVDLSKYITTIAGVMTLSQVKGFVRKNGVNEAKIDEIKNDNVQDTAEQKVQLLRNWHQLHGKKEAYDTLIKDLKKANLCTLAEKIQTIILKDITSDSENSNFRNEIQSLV

B1: p60 TNFR, full-length, P19438 30-455 (receptor)
chain: LVPHLGDREKRDSVCPQGKYIHPQNNSICCTKCHKGTYLYNDCPGPGQDTDCRECESGSFTASENHLRHCLSCSKCRKEMGQVEISSCTVDRDTVCGCRKNQYRHYWSENLFQCFNCSLCLNGTVHLSCQEKQNTVCTCHAGFFLRENECVSCSNCKKSLECTKLCLPQIENVKGTEDSGTTVLLPLVIFFGLCLLSLLFIGLMYRYQRWKSKLYSIVCGKSTPEKEGELEGTTTKPLAPNPSFSPTPGFTPTLGFSPVPSSTFTSSSTYTPGDCPNFAAPRREVAPPYQGADPILATALASDPIPNPLQKWEDSAHKPQSLDTDDPATLYAVVENVPPLRWKEFVRRLGLSDHEIDRLELQNGRCLREAQYSMLATWRRRTPRREATLELLGRVLRDMDLLGCLEDIEEALCGPAALPPAPSLLR
B1 showed a percent of chains cross-linked as apparent trimers and higher order complexes [1] of 15 to 20%.

B2: Fas fusion proteins with the death domain (CFP and YFP), P25445 26-335 (receptor, not shown: large carriers)
chain: QVTDINSKGLELRKTVTTVETQNLEGLHHDGQFCHKPCPPGERKARDCTVNGDEPDCVPCQEGKEYTDKAHFSSKCRRCRLCDEGHGLEVEINCTRTQNTKCRCKPNFFCNSTVCEHCDPCTKCEHGIIKECTLTSNTKCKEEGSRSNLGWLCLLLLPIPLIVWVKRKEVQKTCRKHRKENQGSHESPTLNPETVAINLSDVDLSKYITTIAGVMTLSQVKGFVRKNGVNEAKIDEIKNDNVQDTAEQKVQLLRNWHQLHGKKEAYDTLIKDLKKANLCTLAEKIQTIILKDITSDSENSNFRNEIQSLV
With B2 the FRET efficiency (E%) [2] was 27%.

B3: native Fas receptor of H9 lymphoma cells, P25445 26-335 (receptor)
chain: QVTDINSKGLELRKTVTTVETQNLEGLHHDGQFCHKPCPPGERKARDCTVNGDEPDCVPCQEGKEYTDKAHFSSKCRRCRLCDEGHGLEVEINCTRTQNTKCRCKPNFFCNSTVCEHCDPCTKCEHGIIKECTLTSNTKCKEEGSRSNLGWLCLLLLPIPLIVWVKRKEVQKTCRKHRKENQGSHESPTLNPETVAINLSDVDLSKYITTIAGVMTLSQVKGFVRKNGVNEAKIDEIKNDNVQDTAEQKVQLLRNWHQLHGKKEAYDTLIKDLKKANLCTLAEKIQTIILKDITSDSENSNFRNEIQSLV
B3 gave a percent of chains cross-linked as trimers (densitometry) [3] of 60%.
